Molecular target: the molecule itself
Assay: cryo-EM structure; single-particle cryo-EM of the rcRC-LH complex purified whole from native membranes, 3 mg/mL in 0.02% DDM, 150 mM NaCl, 50 mM Tris-HCl pH 8.0; 4.1 Å (subunit X helix seen after low-pass filter to 6 Å)

B1: LHαβ heterodimer of Roseiflexus castenholzii (complex)
chain 1: MKDRPFEFRTSVVVSTLLGLVMALLIHFVVLSSGAFNWLRAP
chain 2: MTDKPQNDLVPDQWKPLFNNAQWLVHDIVVKTIYGGLIIAVIAHVLCWAWTPWIR
notes: α subunit of the LH antenna, Roseiflexus castenholzii, encoded by puf A; β subunit of the LH antenna, Roseiflexus castenholzii, encoded by puf B; Each heterodimer holds two B880, one B800 and one keto-γ-carotene; 15 of them form the open elliptical LH ring; also called LHαβ subunit
stoichiometry N: 15

— paper PMC5908803, “Cryo-EM structure of the RC-LH core complex from an early branching photosynthetic prokaryote” (Nature Communications, 2018)
